In the RNAGym collection of RNA variant scans (doi:10.7554/elife.90254) one finds self-cleavage data, which are given here for 56 variants.

The labels stand for the following.
B1: LINE1-mini (parent)
chain: GGCAGAGCUCAACACAGCGUGGCAAAGUGGCUGUGGCUAGACUGCC

In the data set the parent is B1. The data set is described as follows: self-cleavage, relative activity (ratio to wild type); higher = more cleavage; in vitro, sequencing; the parent is a self-cleaving ribozyme.
Turning to GUCAGAGCUCAACACAUCGUGGCAAAGUGGCUGUGGCUAGACUGCC [G2U G17U], the self-cleavage amounted to 0.04. In the case of GUCAGAGCUCAACACACCGUGGCAAAGUGGCUGUGGCUAGACUGCC [G2U G17C], the self-cleavage was found to be 0.05. The same measure for GUCAGAGCUCAACACAACGUGGCAAAGUGGCUGUGGCUAGACUGCC [G2U G17A]: 0.03; for GUCAGAGCUCAACACAGCGUCGCAAAGUGGCUGUGGCUAGACUGCC [G2U G21C]: 0.09. Turning to GUCAGAGCUCAACACAGCGUUGCAAAGUGGCUGUGGCUAGACUGCC [G2U G21U], the self-cleavage turned out to be 0.14. The same measure for GUCAGAGCUCAACACAGCGUAGCAAAGUGGCUGUGGCUAGACUGCC [G2U G21A]: 0.25. For GUCAGAGCUCAACACAGCGUGACAAAGUGGCUGUGGCUAGACUGCC [G2U G22A] the value was 0.11; for GUCAGAGCUCAACACAGCGUGCCAAAGUGGCUGUGGCUAGACUGCC [G2U G22C], 0.12. In the case of GUCAGAGCUCAACACAGCGUGUCAAAGUGGCUGUGGCUAGACUGCC [G2U G22U], the self-cleavage is 0.11. As for GUCAGAGCUCAACACAGCGUGGCAAAGUGGCUGUGGCUAGACUCCC [G2U G44C], the self-cleavage stood at 0.09. For GUCAGAGCUCAACACAGCGUGGCAAAGUGGCUGUGGCUAGACUACC [G2U G44A] the value was 0.08; for GUCAGAGCUCAACACAGCGUGGCAAAGUGGCUGUGGCUAGACUGCU [G2U C46U], 0.06.

For the variant GUCAGAGCUCAACACAGCGUGGCAAAGUGGCUGUGGCUAGACUGCA [G2U C46A], the self-cleavage amounted to 0.09. GUCAGAGCUCAACACAGCGUGGCAAAGUGGCUGUGGCUAGACUGCG [G2U C46G]: the self-cleavage is 0.1. For GUCAGAGCUCAACACAGCGUGGCAAAGUGGCUGUCGCUAGACUGCC [G2U G35C], the self-cleavage turned out to be 0.05. The same measure for GUCAGAGCUCAACACAGCGUGGCAAAGUGGCUGUUGCUAGACUGCC [G2U G35U]: 0.07. For GUCAGAGCUCAACACAGCGUGGCAAAGUGGCUGUAGCUAGACUGCC [G2U G35A], the self-cleavage was found to be 0.05.

On to GUCAGAGCUCAACACAGCGUGGCAAAGUGGCUGUGGCUAGACUGAC [G2U C45A], for which the self-cleavage amounted to 0.45.

As for GUCAGAGCUCAACACAGCGUGGCAAAGUGGCUGUGGCUAGACUGGC [G2U C45G], the self-cleavage stood at 0.23. For GUCAGAGCUCAACACAGCGUGGCAAAGUGGCUGUGGCUAGACUGUC [G2U C45U], the self-cleavage came out at 0.11. For GUCAGAGCUCAACACAGCGUGGCAAACUGGCUGUGGCUAGACUGCC [G2U G27C] the value was 0.09; for GUCAGAGCUCAACACAGCGUGGCAAAAUGGCUGUGGCUAGACUGCC [G2U G27A], 0.15; for GUCAGAGCUCAACACAGCGUGGCAAAUUGGCUGUGGCUAGACUGCC [G2U G27U], 0.06. As to GUCAGAACUCAACACAGCGUGGCAAAGUGGCUGUGGCUAGACUGCC [G2U G7A], the self-cleavage turned out to be 0.07. For GUCAGAUCUCAACACAGCGUGGCAAAGUGGCUGUGGCUAGACUGCC [G2U G7U] the value was 0.05. GUCAGACCUCAACACAGCGUGGCAAAGUGGCUGUGGCUAGACUGCC [G2U G7C]: the self-cleavage is 0.04. The same measure for GUCAGAGCUCAACACAGCCUGGCAAAGUGGCUGUGGCUAGACUGCC [G2U G19C]: 0.03. Take GUCAGAGCUCAACACAGCUUGGCAAAGUGGCUGUGGCUAGACUGCC [G2U G19U]: the self-cleavage stood at 0.05.

For GUCAGAGCUCAACACAGCAUGGCAAAGUGGCUGUGGCUAGACUGCC [G2U G19A], the self-cleavage amounted to 0.08.

As for GUCAGAGCUCAACACAGCGUGGCAAAGUGGCUGUGGCUAUACUGCC [G2U G40U], the self-cleavage stood at 0.04. For GUCAGAGCUCAACACAGCGUGGCAAAGUGGCUGUGGCUAAACUGCC [G2U G40A] the value was 0.03; for GUCAGAGCUCAACACAGCGUGGCAAAGUGGCUGUGGCUACACUGCC [G2U G40C], 0.03; for GUCAGAGCUCAACACAGCGUGGCAAAGUGGUUGUGGCUAGACUGCC [G2U C31U], 0.02.

For the variant GUCAGAGCUCAACACAGCGUGGCAAAGUGGAUGUGGCUAGACUGCC [G2U C31A], the self-cleavage is 0.04. Regarding GUCAGAGCUCAACACAGCGUGGCAAAGUGGGUGUGGCUAGACUGCC [G2U C31G], the self-cleavage was 0.03.

As to GUCAGAGCUCAACACAGCGUGGCAAAGUCGCUGUGGCUAGACUGCC [G2U G29C], the self-cleavage was 0.04. With GUCAGAGCUCAACACAGCGUGGCAAAGUUGCUGUGGCUAGACUGCC [G2U G29U], the self-cleavage stood at 0.11. The same measure for GUCAGAGCUCAACACAGCGUGGCAAAGUAGCUGUGGCUAGACUGCC [G2U G29A]: 0.09; for GUCAGAGCUCAACACAGCGUGGCAAAGUGGCUUUGGCUAGACUGCC [G2U G33U]: 0.04. As for GUCAGAGCUCAACACAGCGUGGCAAAGUGGCUCUGGCUAGACUGCC [G2U G33C], the self-cleavage is 0.02. For GUCAGAGCUCAACACAGCGUGGCAAAGUGGCUAUGGCUAGACUGCC [G2U G33A] the value was 0.03; for GUCAGAGCUCAACACAGCGUGGCAAAGUGGCUGUGGUUAGACUGCC [G2U C37U], 0.05.

For GUCAGAGCUCAACACAGCGUGGCAAAGUGGCUGUGGGUAGACUGCC [G2U C37G], the self-cleavage was found to be 0.04. In the case of GUCAGAGCUCAACACAGCGUGGCAAAGUGGCUGUGGAUAGACUGCC [G2U C37A], the self-cleavage came to 0.03. For the variant GUCAUAGCUCAACACAGCGUGGCAAAGUGGCUGUGGCUAGACUGCC [G2U G5U], the self-cleavage was found to be 0.02.

Take GUCAAAGCUCAACACAGCGUGGCAAAGUGGCUGUGGCUAGACUGCC [G2U G5A]: the self-cleavage was determined as 0.06. For GUCACAGCUCAACACAGCGUGGCAAAGUGGCUGUGGCUAGACUGCC [G2U G5C] the value was 0.04; for GUCAGAGCUCAACACAGCGUGGCAAAGUGGCUGUGGCUAGAUUGCC [G2U C42U], 0.1; for GUCAGAGCUCAACACAGCGUGGCAAAGUGGCUGUGGCUAGAAUGCC [G2U C42A], 0.06.

Consider GUCAGAGCUCAACACAGCGUGGCAAAGUGGCUGUGGCUAGAGUGCC [G2U C42G], for which the self-cleavage came out at 0.02. For GUCAGAGCUCAACACAGCGUGGCAAAGUGGCUGUGCCUAGACUGCC [G2U G36C] the value was 0.05; for GUCAGAGCUCAACACAGCGUGGCAAAGUGGCUGUGACUAGACUGCC [G2U G36A], 0.05; for GUCAGAGCUCAACACAGCGUGGCAAAGUGGCUGUGUCUAGACUGCC [G2U G36U], 0.04. Take GUCAGAGCUCAACACAGCGUGGCAAAGUGCCUGUGGCUAGACUGCC [G2U G30C]: the self-cleavage was found to be 0.1. The same measure for GUCAGAGCUCAACACAGCGUGGCAAAGUGUCUGUGGCUAGACUGCC [G2U G30U]: 0.1.

Consider GUCAGAGCUCAACACAGCGUGGCAAAGUGACUGUGGCUAGACUGCC [G2U G30A], for which the self-cleavage was 0.09.
